Consider 2 substances from paper doi:10.1101/2021.05.10.443506.

Experiment [1] concerns the target mCherry-Med1-IDR-NLS-LacI. The experiment in a line: LacO array recruitment.
Experiment [2] addresses mCherry-Nup153-IDR-NLS-LacI. The experiment in a line: LacO array recruitment.

Chain of mCherry-Nup153-IDR-NLS-LacI (P49790 2-1475): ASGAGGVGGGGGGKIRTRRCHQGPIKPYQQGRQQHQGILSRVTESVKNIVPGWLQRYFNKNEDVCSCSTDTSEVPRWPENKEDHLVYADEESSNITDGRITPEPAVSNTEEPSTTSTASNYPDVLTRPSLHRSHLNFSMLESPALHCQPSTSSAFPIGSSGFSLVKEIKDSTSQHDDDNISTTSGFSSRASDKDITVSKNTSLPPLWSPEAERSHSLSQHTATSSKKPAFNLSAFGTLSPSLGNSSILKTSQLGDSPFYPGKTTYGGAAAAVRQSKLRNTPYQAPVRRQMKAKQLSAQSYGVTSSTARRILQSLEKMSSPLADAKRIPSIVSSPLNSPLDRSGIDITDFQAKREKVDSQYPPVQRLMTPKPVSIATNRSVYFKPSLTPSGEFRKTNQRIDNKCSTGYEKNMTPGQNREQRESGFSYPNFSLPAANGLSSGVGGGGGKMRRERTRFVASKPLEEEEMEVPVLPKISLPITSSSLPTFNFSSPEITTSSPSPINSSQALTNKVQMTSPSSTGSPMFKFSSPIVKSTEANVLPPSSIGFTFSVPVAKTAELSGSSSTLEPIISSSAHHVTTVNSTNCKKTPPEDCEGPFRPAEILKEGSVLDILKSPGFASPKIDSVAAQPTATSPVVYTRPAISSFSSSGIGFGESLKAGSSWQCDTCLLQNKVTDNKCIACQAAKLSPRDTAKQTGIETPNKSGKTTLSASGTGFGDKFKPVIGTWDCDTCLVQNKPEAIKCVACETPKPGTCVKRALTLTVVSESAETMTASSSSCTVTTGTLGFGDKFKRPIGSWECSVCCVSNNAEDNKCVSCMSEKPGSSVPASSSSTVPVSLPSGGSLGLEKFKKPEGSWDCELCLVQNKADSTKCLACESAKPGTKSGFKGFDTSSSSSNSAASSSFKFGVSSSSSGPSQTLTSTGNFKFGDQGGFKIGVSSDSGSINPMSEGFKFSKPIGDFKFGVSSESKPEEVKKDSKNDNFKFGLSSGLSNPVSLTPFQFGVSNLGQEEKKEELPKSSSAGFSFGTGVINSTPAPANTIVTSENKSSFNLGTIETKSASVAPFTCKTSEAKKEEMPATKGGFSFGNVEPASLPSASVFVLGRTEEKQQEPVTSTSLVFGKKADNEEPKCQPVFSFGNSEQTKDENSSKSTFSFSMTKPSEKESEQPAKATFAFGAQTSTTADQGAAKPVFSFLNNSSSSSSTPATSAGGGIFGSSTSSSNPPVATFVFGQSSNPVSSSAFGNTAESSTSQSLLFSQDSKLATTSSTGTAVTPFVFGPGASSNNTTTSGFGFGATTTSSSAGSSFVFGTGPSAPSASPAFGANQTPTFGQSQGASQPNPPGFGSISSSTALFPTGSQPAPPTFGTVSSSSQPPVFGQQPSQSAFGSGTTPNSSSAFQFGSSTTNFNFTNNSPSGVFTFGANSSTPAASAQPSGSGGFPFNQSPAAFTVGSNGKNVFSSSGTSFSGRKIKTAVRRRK
Chain of mCherry-Med1-IDR-NLS-LacI (Q15648 whole entry): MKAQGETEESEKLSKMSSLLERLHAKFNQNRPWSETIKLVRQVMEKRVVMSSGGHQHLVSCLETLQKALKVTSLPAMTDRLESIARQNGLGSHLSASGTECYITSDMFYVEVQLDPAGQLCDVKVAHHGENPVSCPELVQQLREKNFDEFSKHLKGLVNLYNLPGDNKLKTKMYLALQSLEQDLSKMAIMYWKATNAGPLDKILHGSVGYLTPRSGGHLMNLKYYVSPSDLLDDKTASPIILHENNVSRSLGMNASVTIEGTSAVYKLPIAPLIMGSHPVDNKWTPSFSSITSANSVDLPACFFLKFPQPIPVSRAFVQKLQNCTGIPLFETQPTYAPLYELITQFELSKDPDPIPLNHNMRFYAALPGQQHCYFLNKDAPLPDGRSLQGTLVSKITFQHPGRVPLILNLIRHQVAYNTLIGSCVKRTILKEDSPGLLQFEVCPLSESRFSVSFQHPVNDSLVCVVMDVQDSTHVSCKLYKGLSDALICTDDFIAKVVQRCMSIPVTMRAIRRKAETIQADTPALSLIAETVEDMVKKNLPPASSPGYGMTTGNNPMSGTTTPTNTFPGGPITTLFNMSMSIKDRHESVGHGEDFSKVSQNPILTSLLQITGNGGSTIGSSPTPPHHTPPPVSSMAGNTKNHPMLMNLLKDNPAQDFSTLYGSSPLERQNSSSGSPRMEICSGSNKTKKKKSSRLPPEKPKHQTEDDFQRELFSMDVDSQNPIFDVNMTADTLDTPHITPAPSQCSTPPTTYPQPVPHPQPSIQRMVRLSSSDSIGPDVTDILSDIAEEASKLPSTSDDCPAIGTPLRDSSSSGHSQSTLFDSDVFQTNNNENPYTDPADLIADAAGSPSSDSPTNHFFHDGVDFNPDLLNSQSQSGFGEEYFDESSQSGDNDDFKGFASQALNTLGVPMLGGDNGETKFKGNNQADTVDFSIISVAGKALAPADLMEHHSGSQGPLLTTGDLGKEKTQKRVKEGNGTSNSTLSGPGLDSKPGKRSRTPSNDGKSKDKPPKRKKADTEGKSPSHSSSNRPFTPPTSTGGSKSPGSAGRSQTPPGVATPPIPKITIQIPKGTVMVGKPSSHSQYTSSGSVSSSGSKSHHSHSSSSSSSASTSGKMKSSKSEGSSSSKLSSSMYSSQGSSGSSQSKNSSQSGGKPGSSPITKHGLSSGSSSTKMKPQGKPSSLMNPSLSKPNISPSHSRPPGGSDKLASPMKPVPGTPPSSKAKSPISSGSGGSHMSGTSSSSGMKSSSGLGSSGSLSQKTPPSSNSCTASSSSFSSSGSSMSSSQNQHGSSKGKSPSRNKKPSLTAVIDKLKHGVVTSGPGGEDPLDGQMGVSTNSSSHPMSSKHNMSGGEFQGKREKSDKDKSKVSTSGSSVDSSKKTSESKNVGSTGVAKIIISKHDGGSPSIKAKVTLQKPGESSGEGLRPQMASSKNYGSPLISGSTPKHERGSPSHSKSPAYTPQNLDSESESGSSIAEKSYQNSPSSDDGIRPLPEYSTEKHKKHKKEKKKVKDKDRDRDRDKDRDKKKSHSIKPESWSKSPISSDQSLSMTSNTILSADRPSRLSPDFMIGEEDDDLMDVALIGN
Chain of EGFP-Med1-NLS (Med1 IDR fused to GFP) (domain or fragment) (Q15648 whole entry, the tested form may be a part): as the sequence (Q15648 whole entry) above

Consider “EGFP-PolII CTD52-NLS (domain or fragment)”, for which the percent of cells with colocalized GFP and mCherry signal was 53 % of cells in experiment [1] and 67 % of cells in experiment [2].
Turning to “EGFP-Med1-NLS (Med1 IDR fused to GFP) (domain or fragment)”, the percent of cells with colocalized GFP and mCherry signal in experiment [2] is 13 % of cells.
